Antitrypsin activity (%), substrate BApNa 1.25 mM, TTI 0.7 mg/mL after the gastric phase of simulated digestion (TTI remained intact), antitrypsin activity (%), substrate BApNa 1.25 mM, TTI intact 0.7 mg/mL, no digestion and antitrypsin activity (%) of the eluate from Trypsin-Sepharose data for 1 substance are collected here from article PMC9621272.

In test [1] the target is Trypsin (UniProt P00760).
The target of test [2] is Trypsin (UniProt P00760). The source holds these as a separate data set.

Sequence of UniProt P00760 (P00760 18-246): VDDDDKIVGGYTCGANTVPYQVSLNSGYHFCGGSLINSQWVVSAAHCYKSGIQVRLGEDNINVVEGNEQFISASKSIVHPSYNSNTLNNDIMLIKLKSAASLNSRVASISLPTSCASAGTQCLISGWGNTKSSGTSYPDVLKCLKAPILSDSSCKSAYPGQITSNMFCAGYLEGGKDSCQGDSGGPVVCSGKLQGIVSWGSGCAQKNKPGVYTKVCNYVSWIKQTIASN

As for “trypsin inhibitor isolated from tamarind seeds (natural protein)”, in test [1], the antitrypsin activity (%), substrate BApNa 1.25 mM, TTI 0.7 mg/mL after the gastric phase of simulated digestion (TTI remained intact) was 96.6% and the antitrypsin activity (%), substrate BApNa 1.25 mM, TTI intact 0.7 mg/mL, no digestion is 96.3%. This substance registered an antitrypsin activity (%) of the eluate from Trypsin-Sepharose in test [2] of 97%.
